The values below come from publication doi:10.1101/2023.03.24.534125 (bioRxiv, 2023).

For the assay, the target named is T1, CRISPR array binding protein 1, Cbp1 (S. solfataricus P2, SSO0454) (S. solfataricus P2, UniProt Q97ZW9 1-150).
T1 sequence (looked up): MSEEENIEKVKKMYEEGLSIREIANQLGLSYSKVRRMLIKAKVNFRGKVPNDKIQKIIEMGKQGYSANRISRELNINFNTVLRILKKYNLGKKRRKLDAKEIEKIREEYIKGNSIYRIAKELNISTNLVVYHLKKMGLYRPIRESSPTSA
The assay can be described thus: native gel or EMSA.

B1: Cren7 (S. solfataricus, SSO6901) (natural protein, UniProt Q97ZE3 1-60, looked up)
chain: MSSGKKPVKVKTPAGKEAELVPEKVWALAPKGRKGVKIGLFKDPETGKYFRHKLPDDYPI
With B1, the stoichiometry N (commonly the number of molecules, sites or subunits per partner or assembly) is 2.
